According to the supplement of paper PMC10567573:

B1: FUT8 (parent)
chain: YAHQPRTADEIPMEPGDIIGVAGN
B2: PHTF1 (parent)
chain: SRHLNSQVKKTTTRWCHIVRDSDS

Variants of: B1
Test: protein stability index of a GFP-peptide fusion (GPS, HEK-293T) (PSI 1-6); higher = more stable
Conditions: c terminus: a fixed tail appended
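Note: lentivirally expressed fusions sorted by FACS into six bins by GFP to DsRed ratio, PSI derived from sequencing read proportions per bin multiplied by bin number.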

Protein stability index of substitutions, site by site:
G16: Y 3.05 | K 3.75 | L 3.73 | T 3.86 | W 2.12 | A 4.3 | P 4.1 | F 2.93 | D 4.61 | N 4.16
A2: D 5.06 | E 5.05 | T 4.49 | I 3.15 | C 4.03 | F 4.45
N24: E 4.59 | R 3.5 | I 2.93 | K 3.62 | Q 4.03 | V 3.61 | S 4.17 | W 2.66
I19: D 5.07 | E 5.21 | V 4.17 | G 4.34 | W 1.93 | L 3.65 | A 4.67 | Y 4.06 | M 4.54 | C 4.22 | Q 4.25 | H 4.02
T7: M 3.68 | N 4.51 | W 2.46 | F 2.37 | D 4.62 | Q 4.25 | Y 3.58 | R 3.9
I18: L 4.05 | D 4.95 | R 4.45 | K 4.56 | H 3.71 | C 3.01 | P 4.7 | M 4.21 | A 3.83 | T 4.2 | E 4.19 | G 3.84
R6: C 4.05 | D 4.54 | T 4.59 | W 2.62 | P 4.78 | V 4.44 | L 4.2 | K 3.99

Variants of: B2
Test: as above
Conditions: c terminus: a fixed tail appended

Protein stability index of substitutions, site by site:
S24: N 2.66 | I 1.36 | W 1.79 | G 2.13 | Q 2.02 | L 1.75 | P 2.01 | T 2.99 | H 2.02 | V 1.88 | Y 1.53 | M 2.21 | D 2.75 | C 2 | R 1.37 | K 1.92 | E 1.9 | F 2.04
D23: Q 1.84 | G 1.56 | K 1.74 | H 2.34 | R 2.8 | E 1.99 | I 2.16 | A 2.59 | V 1.62 | F 2.65 | N 1.99 | C 1.53 | Y 1.88 | L 1.75 | M 2.19 | T 1.78 | S 3.1 | P 2.78
R20: Q 2.09 | P 2.3 | C 1.39 | W 1.57 | V 3.11 | H 2.29 | A 2.31 | L 2.17 | E 2.75 | Y 2.4 | G 1.76 | F 2.37 | N 1.45 | T 2.61 | M 1.69 | I 1.18 | D 2.27 | K 1.25
D21: L 3.98 | K 2.39 | W 2.23 | H 1.44 | A 2.5 | S 2.14 | R 1.55 | V 1.37 | E 1.5 | M 1.82 | T 2.79 | Y 1.69 | P 2.57 | G 1.7
S22: Q 2.65 | I 1.45 | M 2.15 | T 1.94 | W 2.08 | A 1.82 | D 1.72 | C 1.73 | Y 1.94 | K 2.84 | P 1.77 | N 1.48 | F 1.86 | E 1.87 | L 1.78
I18: Y 1.74
V19: P 2.42 | M 2.94 | H 1.66 | S 2.75 | E 3.71 | G 2.4 | Y 2.44 | F 1.55 | D 3.23 | I 1.75 | Q 2.81 | N 2.55 | T 3.13 | C 2.19 | R 2.2 | W 1.62 | A 2.8 | L 2.35 | K 2.3
